{
  "source": "patent US8623997B2",
  "about": "“Variant Hhip1 protein and methods and uses thereof” (Curis, Inc., priority 2008, dated 2014)",
  "molecules": {"B1": {"name": "Hhip1β12: β-propeller-EGF1-EGF2 construct (SEQ ID NO:12), residues 193-667 of SEQ ID NO:2, lacking putative Fz domain (protein, listed as Homo sapiens)", "chain": "SNYLDQMEEYDKVEEISRKHKHNCFCIQEVVSGLRQPVGALHSGDGSQRLFILEKEGYVKILTPEGEIFKEPYLDIHKLVQSGIKGGDERGLLSLAFHPNYKKNGKLYVSYTTNQERWAIGPHDHILRVVEYTVSRKNPHQVDLRTARVFLEVAELHRKHLGGQLLFGPDGFLYIILGDGMITLDDMEEMDGLSDFTGSVLRLDVDTDMCNVPYSIPRSNPHFNSTNQPPEVFAHGLHDPGRCAVDRHPTDININLTILCSDSNGKNRSSARILQIIKGKDYESEPSLLEFKPFSNGPLVGGFVYRGCQSERLYGSYVFGDRNGNFLTLQQSPVTKQWQEKPLCLGTSGSCRGYFSGHILGFGEDELGEVYILSSSKSMTQTHNGKLYKIVDPKRPLMPEECRATVQPAQTLTSECSRLCRNGYCTPTGKCCCSPGWEGDFCRTAKCEPACRHGGVCVRPNKCLCKKGYLGPQCE"}, "B2": {"name": "Hhip1β12-Fc: Fc-tagged Hhip1β12 (protein)", "chain": "B1 chain", "modifications": "left off: a dimerising Fc or GST"}},
  "key": {"Shh": {"target": "T1, Shh (Homo sapiens, UniProt Q15465)", "T1 construct": "yielding Shh (residues 29-197) lacking the His6-Tag; His6 (N, cleaved yes); made in house; host or cells: E. coli Rosetta 2, minimal/M9 medium with 15NH4Cl", "experiment": "NMR HSQC spectroscopy of labeled Shh with L2 loop peptides", "type": "binding", "source_text": "Shh is in the same orientation as in the Hhip-Shh complex in Panel A. Zn^2+ and Ca^2+ cations are shown. […] Surface representation of Shh with residues within 4.5 Å of Hhip (shaded gray) and Cdon (hatched areas). Area within dotted boarder indicates the boundaries of the Cdon footprint, which overlaps the Hhip binding surface. […] Shh histidine residues are shown as sticks with nitrogen atoms shaded dark. The Hhip L2 loop is shown in transparent surface and Zn^2+ cation is shown. Histidine 35 is not shown since the ordered portion of the Shh structure begins at L40. […] The spectral region of the histidine side chains is shown. […] The average mean Shh649 fluorescence intensity (MFI) of two independent dilution series was plotted versus protein concentration, with error bars denoting standard deviations. Ctrl refers to the His-6 (SEQ ID NO: 87) tagged HGF β protein. […] Shh649 (0.33 nM) was preincubated with 56 nM (170-fold excess) of Hhipβ12 wildtype or L2 mutant proteins, 5E1 or controls then bound to Ptch1 cells (black) or 293 cells (gray), washed and analyzed by FACS. Shh649 binding to Ptch1 cells in the absence of inhibitors was normalized to 100% and the data expressed as a percentage of this signal (average of two independent duplicates with standard deviations). Ctrl and CtrlFc refer to HGF β and the IgG1 isotype control Trastuzumab, respectively. […]"}, "Shh-Flag": {"target": "T2, Shh-Flag (Homo sapiens, UniProt Q15465)", "T2 construct": "Shh-Flag (residues 25-197 with C-terminal Flag-Tag); His6 (N); made in house; host or cells: Shh-Flag: E. coli Rosetta 2; Hhip: Tni insect cells", "experiment": "Peptide competition ELISA for Hhip binding to Shh-Flag", "experimental": "In a competition assay, a peptide derived from the Hhip1β12 L2 loop competed with Hipβ1 for Shh binding. Briefly, 96-well Nunc-Immuno MaxiSorp plates (Nalge Nunc International) were coated with 100 μl of anti-Flag M2 antibody (Sigma) at 5 μg/ml in 50 mM sodium carbonate buffer pH 9.6 at 4° C. overnight. Plates were blocked and washed as described for Shh competition ELISA followed by incubation with 100 μL of Shh-Flag at 50 μg/ml for 1 h. After plate washing a serial dilution of Hip-L2 peptide ([…]) (SEQ ID NO:46) starting at 1.2 mM (1:3 dilution) containing 800 nM Hhip1β12 in a final volume of 100 μL was added to the wells to compete for binding to Shh-Flag. After incubation for 1 hr, wells were washed and incubated with anti-His-HRP conjugate (Qiagen, 1:2000 dilution) in blocking buffer. Plate was developed and the data were fit to a 4-parameter equation and the IC50 calculated as described above; assays were carried out in triplicate."}, "Ptch1": {"system": "Ptch1", "experiment": "FACS assay of Shh649 binding to Ptch1 expressing 293 cells and its competition", "design": "species or system human", "experimental": "Shh649 (1 nM) preincubated with indicated proteins was bound to Ptch1 expressing cells, washed and analyzed by FACS. The average mean Shh649 fluorescence intensity (MFI) of two independent dilution series was plotted versus inhibitor concentration, with error bars denoting standard deviations. […] Assays were carried out using octylated Ihh wildtype and T154I proteins. Concentration dependent relative luciferase units (RLU) are plotted as the average of four independent dilution series±standard deviation and normalized to the maximal Ihh WT stimulation on each plate as 100%. […] The data is representative of three independent experiments.\nShh is in the same orientation as in the Hhip-Shh complex in Panel A. Zn^2+ and Ca^2+ cations are shown. […] Surface representation of Shh with residues within 4.5 Å of Hhip (shaded gray) and Cdon (hatched areas). Area within dotted boarder indicates the boundaries of the Cdon footprint, which overlaps the Hhip binding surface. […] Shh histidine residues are shown as sticks with nitrogen atoms shaded dark. The Hhip L2 loop is shown in transparent surface and Zn^2+ cation is shown. Histidine 35 is not shown since the ordered portion of the Shh structure begins at L40. […] The spectral region of the histidine side chains is shown. […] The average mean Shh649 fluorescence intensity (MFI) of two independent dilution series was plotted versus protein concentration, with error bars denoting standard deviations. Ctrl refers to the His-6 (SEQ ID NO: 87) tagged HGF β protein. […] Shh649 (0.33 nM) was preincubated with 56 nM (170-fold excess) of Hhipβ12 wildtype or L2 mutant proteins, 5E1 or controls then bound to Ptch1 cells (black) or 293 cells (gray), washed and analyzed by FACS. Shh649 binding to Ptch1 cells in the absence of inhibitors was normalized to 100% and the data expressed as a percentage of this signal (average of two independent duplicates with standard deviations). Ctrl and CtrlFc refer to HGF β and the IgG1 isotype control Trastuzumab, respectively. The data is representative of at least three independent experiments.\nShh649, conjugated to Dylight 649 (Pierce) at its C-terminus (vide supra), was incubated at 0.33 or 1 nM for 1 h on ice with various Hhip or control proteins prior to incubation with HEK-293 cells (293) or 293 cells expressing full length human Patched-1 (Ptch1-293 clone 10) (Carpenter D. et al. (1998) Proc. Natl. Acad. Sci. USA 95:13630-13634) in FACS buffer (3% FBS in PBS) for 1 h on ice. After washing 3 times in FACS buffer, live cells (sorted by propidium iodide exclusion) were analyzed by flow cytometry in the APC channel using a FACSCalibur (BD Biosciences). Control proteins included His6-Shh, His6-Ihh, HGF β-His639, Trastuzumab (Genentech, Inc.) as a human IgG1 isotype control for Hhip1β12-Fc, and mIgG1 (Molecular Probes Z25105) as a murine Mab control for anti-Shh 5E1 Mab34."}, "biotinylated-ShhN-Cys": {"target": "T3, biotinylated-ShhN-Cys (Homo sapiens, UniProt Q15465)", "T3 construct": "ShhN-Cys (residues 24-197); His6 (N); made in house; host or cells: E. coli Rosetta 2", "experiment": "Bio-layer interferometry (Octet) binding kinetics of Hhip1β12 variants to Shh", "conditions": "1:1 binding model; n.d stands for no binding detected"}, "Shh signaling": {"system": "Shh signaling", "experiment": "Gli-luciferase co-culture signaling assay (S12 fibroblasts overlaid with Shh-producing HT29 cells)", "type": "cell-based, murine S12 fibroblasts / human HT29 cells", "conditions": "Gli-luciferase co-culture, 24 hrs; read-out: IC50 inhibition of Shh signaling", "source_text": "Due to the lack of both N- and C-terminal lipid modifications of Shh and the absence of other cellular components, the in vitro assays may not fully recapitulate Hip-Shh interactions occurring in a cellular environment. Therefore, a co-culture assay consisting of murine S12 fibroblasts stably transfected with a Gli luciferase reporter gene and (Frank-Kamenetsky et al. (2002) J. Biol. 1:10) and human colorectal adenocarcinoma HT29 cells that secrete fully lipid-modified Shh (Yauch et al. (2008) Nature 455:406) was used to determine which extracellular domains of Hhip1β12 mediate inhibition of Shh signaling in mammalian cells.\nBriefly, S12 cells, which are 10T1/2 fibroblasts stably transfected with 8× Gli-binding sites fused to a luciferase reporter (Frank-Kamenetsky et al. (2002) J. Biol. 1:10), were plated at 10,000 cells/well of a white-walled clear bottomed 96-well plate (Costar 3610) for […] in regular growth medium (HG-DMEM, 10% FBS, 1% glutamine). After 24 h, the media was removed and Shh-producing HT29 cells at 20,000 cells/well were plated and the co-culture was grown in regular media. After 24 h, the media was changed to 0.5% serum HG-DMEM±Hhip1β12 fragments and further incubated for 24 hrs to stimulate signaling. Gli-luciferase activity was measured using a HTS-Steady Lite luciferase detection kit (Perkin Elmer); multiple assays were carried out, each in triplicate. Data were fit to a 4-parameter sigmoidal equation, from which the IC50 was derived using Kaleidagraph (Synergy Software)."}, "[1]": {"target": "T4, Shh649 binding to Hhip1β12 on 293 cells (Homo sapiens, UniProt Q15465)", "T4 construct": "made in house; host or cells: Shh649: E. coli Rosetta 2; Hhip1β12: Tni insect cells; both added to HEK-293 cells", "experiment": "FACS: Ptch1-independent recruitment of Shh649 to 293 cells by Hhip1β12", "conditions": "520 nM", "source_text": "The critical residue for 5E1 binding, S177 shown marked with an asterisk (*), resides in the area of Shh that interacts with both Hhip and Ptch1. Numbering refers to human Shh (Fuse, N. et al. (1999) Proc. Natl. Acad. Sci. USA 96:10992-10999; Pepinsky R. B. et al. (2000) J. Biol. Chem. 275:10995-11001). […] Black bars show binding to Ptch1 cells for comparison. Data are the average mean fluorescence intensity and SDs of two independent (duplicate and triplicate) experiments normalized to Shh649 binding to Ptch1 cells in the absence of other proteins (“Ctrl”) in the same way as FIG. 15J. Shh649 and Hhip1β12 are present at 45- and 10-fold higher concentrations respectively than in FIG. 15J in order to detect the Ptch1-independent binding of Shh649 to Hhip1β12.\nShh649, conjugated to Dylight 649 (Pierce) at its C-terminus (vide supra), was incubated at 0.33 or 1 nM for 1 h on ice with various Hhip or control proteins prior to incubation with HEK-293 cells (293) or 293 cells expressing full length human Patched-1 (Ptch1-293 clone 10) (Carpenter D. et al. (1998) Proc. Natl. Acad. Sci. USA 95:13630-13634) in FACS buffer (3% FBS in PBS) for 1 h on ice. After washing 3 times in FACS buffer, live cells (sorted by propidium iodide exclusion) were analyzed by flow cytometry in the APC channel using a FACSCalibur (BD Biosciences). […]"}},
  "note": "Bridge positions count the residues as written; N and C are the ends. Ends that are not written are not given here.",
  "data": [
    {"molecule": "GCGMITLDDMEEMDGLSDFCG (disulfide 2-20 (inferred); listed as Homo sapiens) [Hhip1β12 L2 peptide]", "values": [
      {"measurement": "displacement of Ptch1 L2-like peptide from Shh by ^13C, ^1H-HSQC", "setting": "Shh; 2 mM of each peptide", "result": "displaces Ptch1 L2-like peptide from Shh"}
    ]},
    {"molecule": "GCQLTKQRLVDADGIINPCG (disulfide 2-19 (inferred); listed as Homo sapiens) [Ptch L2 peptide]", "values": [
      {"measurement": "binding to Shh by ^15N, ^1H HSQC (in words)", "setting": "Shh; peptide 2 mM, 90 μM ^15N-Shh", "result": "binds Shh in a manner similar to that of the Hhip1β12 L2 peptide"},
      {"measurement": "competition with Hipβ1 for Shh binding (in words)", "setting": "Shh-Flag", "result": "unable to compete with Hipβ1 for Shh binding"}
    ]},
    {"molecule": "B1", "values": [
      {"measurement": "competition of Shh649 binding to Ptch1 cells (in words)", "setting": "Ptch1", "result": "inhibit Ptch1-specific Shh cell binding in a dose-dependent manner"},
      {"measurement": "Kd", "setting": "biotinylated-ShhN-Cys", "result": 220, "unit": "nM"},
      {"measurement": "koff × 10^−4", "setting": "biotinylated-ShhN-Cys", "result": "9.4 × 10^−4 [s^−1]"},
      {"measurement": "kon × 10^3", "setting": "biotinylated-ShhN-Cys", "result": "4.3 × 10^3 [M^−1 × s^−1]"},
      {"measurement": "IC50", "setting": "Shh signaling", "result": 5, "unit": "nM"},
      {"measurement": "binding to 293 cells at high concentrations", "setting": "[1]", "result": "bind nonspecifically to 293 cells"}
    ]},
    {"molecule": "B2", "values": [
      {"measurement": "competition of Shh649 binding to Ptch1 cells (in words)", "setting": "Ptch1", "result": "inhibit Ptch1-specific Shh cell binding in a dose-dependent manner"},
      {"measurement": "binding to 293 cells at high concentrations", "setting": "[1]", "result": "bind nonspecifically to 293 cells"}
    ]}
  ]
}
